Laboratory results taken from patent US9617326B2, “RTRAIL mutant and monomethyl auristatin E conjugate thereof” (Zhejiang University, priority 2012, dated 2017).
Like-named read-outs stand apart in the source and are kept apart here.

Tests used:
[1] = tested on: NCI-H460 tumor-bearing mice; conditions: athymic mice with NCI-H460 tumor; for distribution of fluorescence in mice: about 50 μg Cy5-labeled conjugate via tail vein
Protocol: N109C-vcMMAE was taken as an example, and the conjugate was tracked in real-time in mice by Fluorescent labeling method to observe tumor targeting ability of the conjugate.
Athymic mice weighing 20 g were selected and 10^7 NCI-H460 cells were injected subcutaneously in the armpit of one side of the forelegs.
Cy5, as a Near-IR-activated dye, was used as a fluorescent label, so as to facilitate the fluorescence to pass through animal skin and achieve the goal of real time vital observation. In terms of concrete method of Cy5 labeling, please refer to the instruction offered by the manufacturer (Lumiprobe).
200 μL sample containing about 50 μg Cy5-labeled conjugate was injected into the tumor-bearing mice via tail vein, while equal amount of normal saline was injected into the blank control group.
Small living animal imager (NightOWLN320) was used to observe distribution of fluorescence in mice every 24 hours. […] The mice were killed after 4th day, and heart, liver, spleen, lung, kidney and tumor tissues were isolated. […] The white arrow indicates tumor site.

MCF-7 cells = experiment: In vitro anti-tumor activity (CCK-8 killing) on MCF-7 cells; format: cell-based; conditions: MCF-7 (TRAIL resistant type), 32-1000 ng/mL, both low and high concentrations, 96 hours, FIG. 6
Text: (§1) 4 types of cells were selected to measure in vitro anti-tumor activity of the rTRAIL mutant and the MMAE conjugate: TRAIL sensitive type (NCI-H460), TRAIL insensitive type (Hela), TRAIL resistant type (MCF-7) and normal cells (HEK293). All of these 4 types of cells had TRAIL death receptor on their surfaces.
(§2) Hereinafter, TRAIL sensitive type NCI-H460 cell was taken as an example to give detailed description of the test procedure, including the following steps:
(§3) (1) Digesting the NCI-H460 cells into individual cells, followed by diluting to 1×10^4 cells/mL, spreading the cells on 96-well plate (100 μL for each well), and culturing the cells for 24 hours under normal condition.
(§4) (2) Diluting N109C, N109C-vcMMAE and S96C-vcMMAE with culture medium respectively, and adding them into the cell plate with final concentrations of 32, 63, 125, 250, 500, 1000 ng/mL for serving as the test groups, while using standard TRAIL (114-281) as the positive control group, using the buffer (used for dissolving the test sample, diluted with the culture medium in a same manner) as the negative control group, and using the culture medium (without adding any solution) as the blank control group. All the control groups and test groups were tested in triplicate. […]

Hela cells = experiment: In vitro anti-tumor activity (CCK-8 killing) on Hela cells; format: cell-based; conditions: Hela (TRAIL insensitive type), 32-1000 ng/mL, both low and high concentrations, 96 hours, FIG. 6
Text: as §1, §2, §3, §4

NCI-H460 cells = experiment: Cell endocytosis of the conjugate by tumor cells (laser confocal); format: cell-based; conditions: 1 μg/mL
Protocol: NCI-H460 cells were taken as an example to observe behaviors of rTRAIL mutant-vcMMAE conjugate in tumor cells by laser confocal technology, including the following steps:
a) A coverslip was immersed with 1M HCl and 70% ethanol, subjected to ultrasonic treatment for 30 min, washed for 5-6 times with double distilled water and sterilized for later use;
b) Well-sterilized coverslip was placed in 24-well plate, and cells were plated at 10^4 cells/well and cultured overnight at 37° C.;
c) Administration: N109C-vcMMAE and S96C-vcMMAE were diluted respectively to a final concentration of 1 μg/mL, and the cells were treated according to step d) at different time points (1st, 4th, 8th and 12th hour), while drug-free culture medium was used for the blank control group; d) The coverslip was washed with cold PBS for 3 times and then fixed with 4% paraformaldehyde for 10 min at room temperature; e) PBS was used to wash the coverslip for another 3 times; f) 0.1% Triton X-100 was added to permeabilize for 10 min at room temperature; g) 2% BSA was added to block for 30 min after 3 times washing with PBS; h) Primary antibody incubation: rabbit anti-human rTRAIL polyclonal antibody was diluted with 1% BSA/PBS to 1 μg/mL and incubated for 45 min at room temperature; i) Secondary antibody incubation: FITC-labeled goat anti-rabbit secondary antibody was diluted 500-fold with 1% BSA/PBS and incubated for 45 min at room temperature; j) Staining cell nucleus with DAPI: after PBS washing (3 times), DAPI diluted 1000-fold with PBS was added dropwise on each coverslip (it was appropriate to just cover the cells), and the coverslip was incubated for about 2 min at 25° C.; k) Mounting: after PBS washing, one drop of Anti-fade Fluorescence Mounting Medium was added on the coverslip, then the coverslip was placed upside down on a glass slide and then sealed with nail polish around the coverslip; l) Cofocal detection: the detection result was shown in FIG. 8.

B1: N109C-vcMMAE: rTRAIL N109C mutant trimer coupled via maleimide-modified valine-citrulline linker to 1-3 MMAE molecules (conjugate)
chain: TSEETISTVQEKQQCISPLVRERGPQRVAAHITGTRGRSNTLSSPNSKNEKALGRKINSWESSRSGHSFLSNLHLRNGELVIHEKGFYYIYSQTYFRFQEEIKENTKNDKQMVQYIYKYTSYPDPILLMKSARNSCWSKDAEYGLYSIYQGGIFELKENDRIFVSVTNEHLIDMDHEASFFGAFLVG
modifications: non-natural residues
notes: rTRAIL N109C mutant trimer coupled via maleimide-modified valine-citrulline linker to 1-3 MMAE molecules
- distribution of fluorescence in mice ([1]; 3rd day): most of the fluorescence had gathered on tumor site
- distribution of fluorescence in mice ([1]; 4th day): only the tumor site emitted fluorescence
- tumor-targeting effect ([1]; in vivo imaging over 4 days and isolated tissues): excellent tumor-targeting effect
- killing ability (MCF-7 cells): stronger killing ability than S96C-vcMMAE
- killing ability (Hela cells): stronger killing ability than S96C-vcMMAE
- endocytosis by tumor cells (confocal) (NCI-H460 cells; 1 hour after administration): a lot of N109C-vcMMAE had entered the cells
- endocytosis by tumor cells (confocal) (NCI-H460 cells; 4 hours): more and more N109C-vcMMAE entered the cells and began to aggregate slowly
- endocytosis by tumor cells (confocal) (NCI-H460 cells; 8 hours): more aggregating points emerging inside the cells
- endocytosis by tumor cells and apoptosis (confocal) (NCI-H460 cells; 12 hours): aggregating points inside the cells decreased gradually and cell apoptosis began to occur
